Measurements from publication PMC6167014 (Cancer research, 2017).
Substitutions are numbered along the chain they refer to. Names may count otherwise.

T1: GST-BAP1 (full length) (human, UniProt Q92560 1-729)
T1 sequence (looked up): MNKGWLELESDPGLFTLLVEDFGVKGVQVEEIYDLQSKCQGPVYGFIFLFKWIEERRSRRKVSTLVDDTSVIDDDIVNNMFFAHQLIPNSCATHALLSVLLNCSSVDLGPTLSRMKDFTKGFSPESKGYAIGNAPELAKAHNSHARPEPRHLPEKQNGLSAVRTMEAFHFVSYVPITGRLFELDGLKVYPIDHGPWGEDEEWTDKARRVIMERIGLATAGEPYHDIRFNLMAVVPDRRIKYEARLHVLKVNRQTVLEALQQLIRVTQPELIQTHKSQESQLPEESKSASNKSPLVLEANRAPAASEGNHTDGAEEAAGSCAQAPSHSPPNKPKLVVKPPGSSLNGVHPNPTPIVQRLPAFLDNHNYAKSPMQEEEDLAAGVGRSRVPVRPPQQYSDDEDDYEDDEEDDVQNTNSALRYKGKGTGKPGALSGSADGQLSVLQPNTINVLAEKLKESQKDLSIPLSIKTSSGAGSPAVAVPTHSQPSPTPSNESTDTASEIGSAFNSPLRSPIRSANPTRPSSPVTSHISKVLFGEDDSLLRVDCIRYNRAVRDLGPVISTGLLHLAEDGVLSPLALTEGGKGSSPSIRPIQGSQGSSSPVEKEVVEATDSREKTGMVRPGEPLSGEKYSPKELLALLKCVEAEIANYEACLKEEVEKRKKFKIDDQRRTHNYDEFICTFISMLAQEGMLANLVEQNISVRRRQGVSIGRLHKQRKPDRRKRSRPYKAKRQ

T2: His-BAP1-FL ∆E283-S285 (baculovirus) (human, UniProt Q92560 1-729, ∆E283-S285)
T2 sequence (looked up): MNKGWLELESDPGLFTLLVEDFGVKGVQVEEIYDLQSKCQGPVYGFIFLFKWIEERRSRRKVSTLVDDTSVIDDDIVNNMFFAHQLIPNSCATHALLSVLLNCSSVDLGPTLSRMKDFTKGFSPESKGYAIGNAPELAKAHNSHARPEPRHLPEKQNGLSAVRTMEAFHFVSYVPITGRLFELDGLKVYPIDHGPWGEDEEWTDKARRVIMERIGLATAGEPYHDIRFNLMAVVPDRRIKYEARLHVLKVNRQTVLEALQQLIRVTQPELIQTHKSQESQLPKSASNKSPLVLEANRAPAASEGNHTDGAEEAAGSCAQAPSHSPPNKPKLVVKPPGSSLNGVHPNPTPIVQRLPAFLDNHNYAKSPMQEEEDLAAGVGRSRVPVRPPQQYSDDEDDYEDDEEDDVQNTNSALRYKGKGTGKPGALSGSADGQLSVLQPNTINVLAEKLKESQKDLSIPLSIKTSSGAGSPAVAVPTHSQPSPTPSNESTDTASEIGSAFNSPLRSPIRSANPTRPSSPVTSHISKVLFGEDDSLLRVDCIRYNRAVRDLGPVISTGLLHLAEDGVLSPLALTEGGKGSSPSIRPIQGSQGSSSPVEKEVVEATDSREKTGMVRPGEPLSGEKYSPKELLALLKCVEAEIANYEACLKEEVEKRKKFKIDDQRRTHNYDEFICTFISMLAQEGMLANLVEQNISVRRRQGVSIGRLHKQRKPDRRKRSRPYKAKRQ

T3: GST-BAP1-UCH (1–250 aa) (human, UniProt Q92560 1-250)
T3 sequence (looked up): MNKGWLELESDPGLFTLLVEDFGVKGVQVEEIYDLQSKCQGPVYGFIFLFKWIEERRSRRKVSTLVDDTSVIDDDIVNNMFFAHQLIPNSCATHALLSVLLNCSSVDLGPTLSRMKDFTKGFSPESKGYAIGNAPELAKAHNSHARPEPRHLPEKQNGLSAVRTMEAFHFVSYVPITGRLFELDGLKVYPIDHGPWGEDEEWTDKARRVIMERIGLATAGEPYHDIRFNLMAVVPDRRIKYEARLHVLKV

T4: GST-BAP1-ULD (human, UniProt Q92560 601-729)
T4 sequence (looked up): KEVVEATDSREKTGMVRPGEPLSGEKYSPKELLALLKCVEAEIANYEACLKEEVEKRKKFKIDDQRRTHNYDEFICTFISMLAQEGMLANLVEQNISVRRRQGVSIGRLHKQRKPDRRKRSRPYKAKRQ

B1: Flag-ASXL2 (261–649 aa) (baculovirus) (domain or fragment, human, UniProt Q76L83 261-649, looked up)
chain: MKRTKCADIDVETPDSILVNTNLRALINKHTFSVLPGDCQQRLLLLLPEVDRQVGPDGLMKLNGSALNNEFFTSAAQGWKERLSEGEFTPEMQVRIRQEIEKEKKVEPWKEQFFESYYGQSSGLSLEDSKKLTASPSDPKVKKTPAEQPKSMPVSEASLIRIVPVVSQSECKEEALQMSSPGRKEECESQGEVQPNFSTSSEPLLSSALNTHELSSILPIKCPKDEDLLEQKPVTSAEQESEKNHLTTASNYNKSESQESLVTSPSKPKSPGVEKPIVKPTAGAGPQETNMKEPLATLVDQSPESLKRKSSLTQEEAPVSWEKRPRVTENRQHQQPFQVSPQPFLNRGDRIQVRKVPPLKIPVSRISPMPFHPSQVSPRARFPVSITSP
B2: His-BAP1-ULD (601–729) WT (domain or fragment, human, UniProt Q92560 601-729, looked up)
chain: T4 sequence (looked up)
B3: His-BAP1-ULD L650P (domain or fragment, human, UniProt Q92560 601-729, looked up)
chain: T4 sequence (looked up) with L50P
B4: His-BAP1-ULD F660P (domain or fragment, human, UniProt Q92560 601-729, looked up)
chain: T4 sequence (looked up) with F60P
B5: His-BAP1-ULD ∆K637-C638 (sub of N) (domain or fragment, human, UniProt Q92560 601-729, looked up)
chain: KEVVEATDSREKTGMVRPGEPLSGEKYSPKELLALLNVEAEIANYEACLKEEVEKRKKFKIDDQRRTHNYDEFICTFISMLAQEGMLANLVEQNISVRRRQGVSIGRLHKQRKPDRRKRSRPYKAKRQ
B6: His-ASXL2-AB (261–381 aa) (domain or fragment, human, UniProt Q76L83 261-381, looked up)
chain: MKRTKCADIDVETPDSILVNTNLRALINKHTFSVLPGDCQQRLLLLLPEVDRQVGPDGLMKLNGSALNNEFFTSAAQGWKERLSEGEFTPEMQVRIRQEIEKEKKVEPWKEQFFESYYGQS

Tests used:
GST-BAP1 (full length) = biological target: T1, GST-BAP1 (full length); test: pull-down
[1] = biological target: T2, His-BAP1-FL ∆E283-S285 (baculovirus); test: co-IP
GST-BAP1-UCH (1–250 aa) = biological target: T3, GST-BAP1-UCH (1–250 aa); test: pull-down
GST-BAP1-ULD = biological target: T4, GST-BAP1-ULD; test: pull-down
[2] = biological target: B2; test: pull-down

Row | Binder | binding result (GST-BAP1 (full length)) | binding result (GST-BAP1-UCH (1–250 aa)) | other results
1 | B1 | binds | – | binding result [1]: binds
2 | B2 | – | binds | –
3 | B3 | – | binds | –
4 | B4 | – | binds | –
5 | B5 | – | binds | –
6 | B6 | binds | – | binding result (GST-BAP1-ULD): binds; binding result [2]: binds
